Reference: US12448429B2, “T cell receptors specific to b-cell maturation antigen for treatment of cancer” (Dana-Farber Cancer Institute, Inc., priority 2019, dated 2025)

Experiments:
[1] = target: T1, HLA-A2 (Homo sapiens, UniProt P04439, D140Y/D185E/D98H/E176V/E277Q/G131W/G231S/I119V/I121R/I166T/I218V/L300P/L318F/N151K/N90K/P208A/P217A/Q86G/Q94H/R138H/R169H/T345S); assay: HLA-A2 binding affinity of BCMA peptides on T2 cells (HLA-A2 up-regulation, MFI by flow cytometry); settings: for HLA-A2 binding affinity among the six native peptides: dose-dependent, Example 12; for HLA-A2 specificity (HLA-A2 binding capacity, MFI): six native BCMA peptides compared, T2 cells pulsed overnight with 0-200 μg/ml peptide, FIG. 2; for change of HLA-A2 binding affinity of heteroclitic peptide compared to its native peptide: T2 cells, FIG. 3, Example 12: n=3, p<0.05
T1 construct: endogenous in cells; host or cells: T2 cell line (human B and T cell hybrid), provided by Dr. J. Molldrem
Experimental: The listed BCMA peptides were evaluated for HLA-A2-specific binding capacity using the T2 cell line. In the assay, T2 cells were washed, resuspended in serum-free AIM-V medium to a final concentration of 1×10^6 cells/ml and transferred into wells of a 24-well tissue culture plate. The cells were pulsed with different concentrations of respective BCMA peptide (0-200 μg/ml) plus 3 μg/ml human […] (Sigma) and incubated at 37° C., 5% CO2 in humidified air. Following overnight incubation, the cells were washed, stained with mouse anti-human HLA-A2-FITC mAb for 15 minutes at 4° C., washed and analyzed using a FACSort™ flow cytometer with CellQuest™ v2.1 software (Becton Dickinson, San Jose, Calif.). […] Among the BCMA peptides evaluated, “#4. […] (FIG. 2).
(§1) The native and heteroclitic BCMA peptides were examined for HLA-A2 binding stability using the T2 cell line. T2 cells were pulsed with the respective peptide. After overnight incubation, the cells were washed to remove unbound peptide; they were evaluated for binding affinity as shown above and stability as following. The cells were incubated with 10 μg/ml Brefeldin A (Sigma) at 37° C. and 5% CO2 for 1 hour to block cell surface expression of newly synthesized HLA-A2 molecules. Peptide/HLA-A2 binding stability was evaluated at 0, 2, 4, 6 and 18 hours post-Brefeldin A treatment. Following the incubation period, the cells were harvested, washed, stained with mouse anti-human HLA-A2-FITC mAb and analyzed by flow cytometry. […] Therefore, the Heteroclitic #4 BCMA72-80 (YLMFLLRKI (SEQ ID NO: 37)) peptide was selected for further evaluation of its immunogenic potential to generate MM-specific cytotoxic T cells (CTLs).
(§2) T2 cells were pulsed overnight with various doses of peptide plus β2-microglobulin (3 μg/ml) (Sigma, St Louis, Mo.). Following overnight incubation, the cells were stained with HLA-A2-PE mAb and analyzed using a FACSCanto™ flow cytometer (BD). Peptide/HLA-A2 complex stability was measured on peptide loaded T2 cells at 0, 2, 4, 6 and 14 hours post-brefeldin A treatment by staining with HLA-A2-PE mAb and flow cytometric analysis.

[2] = target: T1, HLA-A2; assay: Peptide/HLA-A2 binding stability on peptide-pulsed T2 cells after Brefeldin A treatment; settings: for HLA-A2 stability (and affinity) of heteroclitic peptides: 0, 2, 4, 6 and 14 hours post-brefeldin A, compared with native peptides and HIV-Gag77-85 positive control
Experimental: as §1, §2

[3] = listed as heteroclitic BCMA72-80

| Sequence | HLA-A2 binding affinity among the six native peptides [1] | HLA-A2 specificity (HLA-A2 binding capacity, MFI) [1] | change of HLA-A2 binding affinity of heteroclitic peptide compared to its native peptide [1] | also measured |
| --- | --- | --- | --- | --- |
| AILWTCLGL [#5. BCMA54-62] | highest HLA-A2 binding affinity | second highest level | – | – |
| VLMFLLRKI [#4. BCMA72-80] | highest HLA-A2 binding affinity | highest level of HLA-A2 specificity | – | – |
| YILWTCLGL [Heteroclitic #5 BCMA54-62] | – | – | increased from their native peptide | HLA-A2 stability (and affinity) of heteroclitic peptides [2]: further enhanced; change of HLA-A2 binding affinity of heteroclitic peptide compared to its native peptide ([1]; listed as heteroclitic hBCMA54-62): highest increase in HLA-A2 binding affinity |
| YLMFLLRKI [Heteroclitic #4 BCMA72-80] | – | – | increased from their native peptide | HLA-A2 stability (and affinity) of heteroclitic peptides ([2]; listed as BCMA72-80 (YLMFLLRKI (SEQ ID NO: 37))): highest level of HLA-A2 affinity and stability; HLA-A2 stability (and affinity) of heteroclitic peptides [2, 3]: further enhanced; HLA-A2 binding stability compared to the native peptide ([2]; 0, 2, 4, 6 and 18 hours post-Brefeldin A, 50 ug/ml, FIG. 4): significant improvement; change of HLA-A2 binding affinity of heteroclitic peptide compared to its native peptide [1, 3]: highest increase in HLA-A2 binding affinity |
| YQNEYFDSL [heteroclite BCMA9-17] | – | – | did not alter its HLA-A2 affinity status | – |
